Experimental data reported in patent US20140112915A1 (Novartis, published 2014).
Numbering of substitutions follows the chain as printed.

B1: MOR13342 (antibody, human IgG1, kappa, L234A L235A, V domains shown)
VH: QVQLVQSGAEVKKPGSSVKVSCKASGGTFSTFSISWVRQAPGQGLEWMGGIIPIFGTANYAQKFQGRVTITADESTSTAYMELSSLRSEDTAVYYCARGGYGGYYYFDYWGQGTLVTVSS
VL: DIQMTQSPSSLSASVGDRVTITCRASQSISNRLNWYQQKPGKAPKLLIYKGSTLQSGVPSRFSGSGSGTDFTLTISSLQPEDFATYYCQQHYVWSTTFGQGTKVEIKR
B2: MOR13347 (antibody, human IgG1, kappa, L234A L235A, V domains shown)
VH: B1 VH
VL: B1 VL with V93Q, S95L
B3: Recombinant human IL-18 Binding Protein-IgG1 Fc (Fc fusion, UniProt O95998 31-194, looked up, not shown: a dimerising Fc or GST)
chain: TPVSQTTTAATASVRSTKDPCPSQPPVFPAAKQCPALEVTWPEVEVPLNGTLSLSCVACSRFPNFSILYWLGNGSFIEHLPGRLWEGSTSRERGSTGTQLCKALVLEQLTPALHSTNFSCVLVDPEQVVQRHVVLAQLWAGLRATLPPTQEALPSSHSSPQQQG
B4: MOR10579 (antibody, human IgG1, lambda, L234A L235A, V domains shown)
VH: EVQLVQSGAEVKKPGSSVKVSCKASGGTFNSYAISWVRQAPGQGLEWMGWINPFYIGETFYAQKFQGRVTITADESTSTAYMELSSLRSEDTAVYYCARAAYHPLVFDNWGQGTLVTVSS
VL: QSVLTQPPSASGTPGQRVTISCSGSSSNIGNHYVNWYQQLPGTAPKLLIYRNNHRPSGVPDRFSGSKSGTSASLAISGLQSEDEADYYCQSWDYSGFSTVFGGGTKLTVLG
B5: MOR9464_N30R (antibody, human IgG1, lambda, L234A L235A, V domains shown)
VH: EVQLVQSGAEVKKPGSSVKVSCKASGGTFRSYAISWVRQAPGQGLEWMGNIIPMTGQTYYAQKFQGRVTITADESTSTAYMELSSLRSEDTAVYYCARAAYHPLVFDNWGQGTLVTVSS
VL: B4 VL with Q1D, S2I, A10V, T13A, S77T
B6: MOR10222_E1Q_N30S_M54N (antibody, human IgG1, lambda, L234A L235A, V domains shown)
VH: B5 VH with E1Q, R30S, M54N
VL: B4 VL
B7: MOR10222_E1Q_N30S_M54Y (antibody, human IgG1, lambda, L234A L235A, V domains shown)
VH: B5 VH with E1Q, R30S, M54Y
VL: B4 VL
B8: MOR9464_N30Q (antibody, human IgG1, lambda, L234A L235A, V domains shown)
VH: B5 VH with R30Q
VL: B4 VL with Q1D, S2I, A10V, T13A, S77T
B9: MOR9464_N30E (antibody, human IgG1, lambda, L234A L235A, V domains shown)
VH: B5 VH with R30E
VL: B4 VL with Q1D, S2I, A10V, T13A, S77T
B10: MOR9464_N30I (antibody, human IgG1, lambda, L234A L235A, V domains shown)
VH: B5 VH with R30I
VL: B4 VL with Q1D, S2I, A10V, T13A, S77T
B11: MOR9464_N30Y (antibody, human IgG1, lambda, L234A L235A, V domains shown)
VH: B5 VH with R30Y
VL: B4 VL with Q1D, S2I, A10V, T13A, S77T
B12: MOR10222 (antibody, human IgG1, lambda, L234A L235A, V domains shown)
VH: B5 VH with R30N
VL: B4 VL
B13: MOR9464_N30T (antibody, human IgG1, lambda, L234A L235A, V domains shown)
VH: B5 VH with R30T
VL: B4 VL with Q1D, S2I, A10V, T13A, S77T
B14: MOR9464_N30G (antibody, human IgG1, lambda, L234A L235A, V domains shown)
VH: B5 VH with R30G
VL: B4 VL with Q1D, S2I, A10V, T13A, S77T
B15: MOR9464_N30V (antibody, human IgG1, lambda, L234A L235A, V domains shown)
VH: B5 VH with R30V
VL: B4 VL with Q1D, S2I, A10V, T13A, S77T
B16: MOR9464_N30H (antibody, human IgG1, lambda, L234A L235A, V domains shown)
VH: B5 VH with R30H
VL: B4 VL with Q1D, S2I, A10V, T13A, S77T
B17: MOR10222_E1Q_N30S (antibody, human IgG1, lambda, L234A L235A, V domains shown)
VH: B5 VH with E1Q, R30S
VL: B4 VL
B18: MOR9464_N30L (antibody, human IgG1, lambda, L234A L235A, V domains shown)
VH: B5 VH with R30L
VL: B4 VL with Q1D, S2I, A10V, T13A, S77T

Target: T1, Native human IL-18 (human, UniProt Q14116 37-193)
T1 sequence: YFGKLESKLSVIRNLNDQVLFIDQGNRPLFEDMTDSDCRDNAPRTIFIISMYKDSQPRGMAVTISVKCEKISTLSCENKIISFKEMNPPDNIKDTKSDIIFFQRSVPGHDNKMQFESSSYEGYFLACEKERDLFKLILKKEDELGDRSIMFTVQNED
Experiment: cell-based or functional assay

Compared with B1, B2 is 2.6-fold lower in “IC50, inhibition of IFN-γ release, human whole blood, LPS/IL-12 (native IL-18)” value (from here on “IC50, inhibition … (native IL-18)”): 21.5 nM for the first, 8.3 nM for the second.

B3 and B4 are within 1.5-fold of each other in “IC50, inhibition … (native IL-18)” value: 12.1 nM for the first, 16.7 nM for the second.

B5 and B6 are within 1.5-fold of each other in “IC50, inhibition … (native IL-18)” value: 11 nM for the first, 16.1 nM for the second.

B7 and B8 are within 1.5-fold of each other in “IC50, inhibition … (native IL-18)” value: 18.8 nM for the first, 13.4 nM for the second.

B9 and B10 are within 1.5-fold of each other in “IC50, inhibition … (native IL-18)” value: 19.2 nM for the first, 13.2 nM for the second.

B11 and B12 are within 1.5-fold of each other in “IC50, inhibition … (native IL-18)” value: 17.9 nM for the first, 21.6 nM for the second.

B13 and B14 are within 1.5-fold of each other in “IC50, inhibition … (native IL-18)” value: 20.8 nM for the first, 15.1 nM for the second.

B15 and B16 are within 1.5-fold of each other in “IC50, inhibition … (native IL-18)” value: 19.6 nM for the first, 23 nM for the second.

B17 and B18 are within 1.5-fold of each other in “IC50, inhibition … (native IL-18)” value: 16.9 nM for the first, 15.5 nM for the second.

Target: T2, Recombinant human IL-18 (human, UniProt Q14116 37-193)
T2 sequence: T1 sequence
Experiment: cell-based or functional assay

Going from B1 to B2, the “IC50, inhibition of IFN-γ release, human whole blood, recombinant human IL-18 (7 nM)” value (“IC50, inhibition of IFN-γ release … (7 nM)” below) falls from 6.6 nM to 3.5 nM (1.9-fold).

B3 and B4 are within 1.5-fold of each other in “IC50, inhibition of IFN-γ release … (7 nM)” value: 5.7 nM for the first, 5.6 nM for the second.

First: B5
Second: B6
The “IC50, inhibition of IFN-γ release … (7 nM)” value of the first is 4.6-fold lower: 10.1 nM for the first, 46.5 nM for the second.

Compared with B7, B8 is 4.2-fold lower in “IC50, inhibition of IFN-γ release … (7 nM)” value: 34.3 nM for the first, 8.1 nM for the second.

B9 and B10 are within 1.5-fold of each other in “IC50, inhibition of IFN-γ release … (7 nM)” value: 12.9 nM for the first, 11.4 nM for the second.

Going from B11 to B12, the “IC50, inhibition of IFN-γ release … (7 nM)” value falls from 12.4 nM to 4.7 nM (2.6-fold).

First: B13
Second: B14
The “IC50, inhibition of IFN-γ release … (7 nM)” value of the first is 2-fold lower: 12.5 nM for the first, 25.1 nM for the second.

B15 and B16 are within 1.5-fold of each other in “IC50, inhibition of IFN-γ release … (7 nM)” value: 12.7 nM for the first, 11.9 nM for the second.

Compared with B17, B18 is 5.9-fold lower in “IC50, inhibition of IFN-γ release … (7 nM)” value: 58.4 nM for the first, 9.85 nM for the second.

Target: T1, Native human IL-18
Experiment: cell-based or functional assay
Remark: another data set of the same source

B1 and B2 are the same in “IC50, inhibition of IFN-γ release, PBMC, Native IL-18 (LPS/IL-12)” value (“IC50, inhibition … (LPS/IL-12)” below): 0.5 nM for the first, 0.5 nM for the second.

Going from B3 to B4, the “IC50, inhibition … (LPS/IL-12)” value rises from 0.17 nM to 0.3 nM (1.8-fold).

With B12 the “IC50, inhibition … (LPS/IL-12)” value was 0.22 nM.

Target: T3, Recombinant cynomolgus IL-18 (cynomolgus monkey, UniProt Q14116 37-193 (human entry))
T3 chain: T1 sequence with V11I, S50N, T63A, K79R, F134Y, E141K
Experiment: cell-based or functional assay

B1 and B2 are within 1.5-fold of each other in “IC50, inhibition of IFN-γ release, KG-1 cells, Cyno IL-18 (0.2 nM)” value: 2.9 nM for the first, 2.8 nM for the second.

First: B3
Second: B4
The “IC50, inhibition of IFN-γ release, KG-1 cells, Cyno IL-18” value of the first is 24-fold lower: 0.4 nM for the first, 9.8 nM for the second.

For B12, the “IC50, inhibition of IFN-γ release, KG-1 cells, Cyno IL-18” value was 6.6 nM.

Target: T2, Recombinant human IL-18
Experiment: cell-based or functional assay
Remark: another data set of the same source

B1 and B2 are within 1.5-fold of each other in “IC50, inhibition of IFN-γ release, KG-1 cells, Hu IL-18 (0.5 nM)” value: 0.11 nM for the first, 0.12 nM for the second.

Going from B3 to B4, the “IC50, inhibition of IFN-γ release, KG-1 cells, Hu IL-18 (1 nM)” value (“IC50, inhibition of IFN-γ release … (1 nM)” below) rises from 0.3 nM to 0.8 nM (2.7-fold).

In the case of B12, the “IC50, inhibition of IFN-γ release … (1 nM)” value is reported as 0.7 nM.

First: B3
Second: B4
The “IC50, inhibition of IFN-γ release, PBMC, Hu IL-18 (recombinant)” value of the first is 1.9-fold lower: 1 nM for the first, 1.9 nM for the second.

B12 was tested, and the “IC50, inhibition of IFN-γ release, PBMC, Hu IL-18 (recombinant)” value was 2.3 nM.

Target: T1, Native human IL-18
Experiment: cell-based or functional assay
Remark: another data set of the same source

B5 and B6 are within 1.5-fold of each other in “IC50, inhibition … (LPS/IL-12)” value: 0.04 nM for the first, 0.03 nM for the second.

B7 and B8 are within 1.5-fold of each other in “IC50, inhibition … (LPS/IL-12)” value: 0.09 nM for the first, 0.07 nM for the second.

B9 and B10 are within 1.5-fold of each other in “IC50, inhibition … (LPS/IL-12)” value: 0.13 nM for the first, 0.11 nM for the second.

Compared with B11, B13 is 6.3-fold higher in “IC50, inhibition … (LPS/IL-12)” value: 0.03 nM for the first, 0.19 nM for the second.

B14 and B15 are the same in “IC50, inhibition … (LPS/IL-12)” value: 0.11 nM for the first, 0.11 nM for the second.

Compared with B16, B17 is 2-fold lower in “IC50, inhibition … (LPS/IL-12)” value: 0.1 nM for the first, 0.05 nM for the second.

With B18 the “IC50, inhibition … (LPS/IL-12)” value was 0.05 nM.

Target: T2, Recombinant human IL-18
Experiment: cell-based or functional assay
Remark: another data set of the same source

Compared with B5, B6 is 11-fold higher in “IC50, inhibition of IFN-γ release … (1 nM)” value: 0.47 nM for the first, 5.2 nM for the second.

Going from B7 to B8, the “IC50, inhibition of IFN-γ release … (1 nM)” value falls from 4.8 nM to 0.22 nM (22-fold).

Going from B9 to B10, the “IC50, inhibition of IFN-γ release … (1 nM)” value falls from 0.49 nM to 0.32 nM (1.5-fold).

B11 and B13 are within 1.5-fold of each other in “IC50, inhibition of IFN-γ release … (1 nM)” value: 0.23 nM for the first, 0.31 nM for the second.

Compared with B14, B15 is 1.9-fold lower in “IC50, inhibition of IFN-γ release … (1 nM)” value: 0.54 nM for the first, 0.29 nM for the second.

Compared with B16, B17 is 14-fold higher in “IC50, inhibition of IFN-γ release … (1 nM)” value: 0.23 nM for the first, 3.3 nM for the second.

For B18, the “IC50, inhibition of IFN-γ release … (1 nM)” value was 0.23 nM.
